In experiment [1] the target is Recombinant protein Claudin 18.2. Put plainly: ELISA on plate-coated recombinant Claudin 18.2, OD370; Kd table under the graph, no unit in the table, unit from the x axis log[antibody] nM.
Experiment [2] has as its target human Claudin 18.1 (CLDN 18.1) expressed on HEK293 cells (human) (UniProt P56856). Nature of the experiment: flow cytometry, 293T-CLDN18.1 cells, FL1-A histogram, gate P1; untransfected 293T: M1 0.0%. (In general: A flow cytometer gives signals particle by particle.)
Experiment [3] has as its target Recombinant protein Claudin 18.2. Put plainly: ELISA as in Example 1, recombinant Claudin 18.2 coated on the plate, OD450, linear axis in ng/ml. For orientation: In an ELISA, binding on a coated surface is turned into a signal by an enzyme label.
Experiment [4] shares this target. Put plainly: binding study 'as in Example 1'; method not named (ELISA on recombinant Claudin 18.2 assumed).
For experiment [5] the target is unchanged. Put plainly: ELISA, recombinant Claudin 18.2 coated at 4.5 ug/mL (Example 67), OD370; Kd table under the graph, no unit in the table, unit from the x axis log[antibody] nM.
Experiment [6] has as its target human Claudin 18.1 (CLDN 18.1) expressed on HEK293 cells (human) (UniProt P56856). Nature of the experiment: flow cytometry, 293T-CLDN18.1 cells, FL1-A histogram, gate P1; untransfected 293T: M1 0.1%.
Experiment [7] deals with Recombinant protein Claudin 18.2. Nature of the experiment: ELISA on plate-coated recombinant Claudin 18.2, OD450; Kd table under the graph, no unit in the table, unit from the x axis log[antibody] nM.
Experiment [8] shares this target. Described as above. The source holds these as a separate data set.
Experiment [9] shares this target. Nature of the experiment: ELISA, recombinant Claudin 18.2 coated at 4.5 ug/mL (Example 67), OD450; Kd box under the graph without column head (the only rising curve is h5C9o_CLN18.2), no unit in the box, unit from the x axis log[antibody] nM.
The target is the same in experiment [10]. Nature of the experiment: ELISA-based assay on Claudin 18.2, y axis RLU; Kd table under the graph, no unit in the table, unit from the x axis log[antibody] nM.
Experiment [11] shares this target. The description is as above. This is another data set of the same source.
The target is the same in experiment [12]. Described as above. The source holds these as a separate data set.

Kd, % of cells in gate M1 and EC50 (read off the curve) data for 15 molecules are collected here from patent publication US20200207857A1.

human Claudin 18.1 (CLDN 18.1) expressed on HEK293 cells (human), sequence (P56856 whole entry): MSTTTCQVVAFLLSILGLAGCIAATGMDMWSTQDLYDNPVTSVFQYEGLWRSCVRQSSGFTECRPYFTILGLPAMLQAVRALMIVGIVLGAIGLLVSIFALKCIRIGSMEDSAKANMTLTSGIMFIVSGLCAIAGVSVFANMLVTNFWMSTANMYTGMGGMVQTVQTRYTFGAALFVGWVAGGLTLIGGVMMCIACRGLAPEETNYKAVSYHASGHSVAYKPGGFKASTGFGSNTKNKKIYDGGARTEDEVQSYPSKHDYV
Recombinant protein Claudin 18.2, sequence (chain, as listed by the source limits assumed, form in doubt): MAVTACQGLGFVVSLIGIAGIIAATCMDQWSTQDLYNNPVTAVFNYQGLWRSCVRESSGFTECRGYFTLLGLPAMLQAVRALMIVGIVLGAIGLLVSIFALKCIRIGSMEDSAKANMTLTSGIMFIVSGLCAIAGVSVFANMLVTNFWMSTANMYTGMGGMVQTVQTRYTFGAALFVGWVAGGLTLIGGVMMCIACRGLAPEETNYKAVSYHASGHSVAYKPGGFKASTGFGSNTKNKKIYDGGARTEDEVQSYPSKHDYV

B1: Anti-CLDN 18.2-9A1 (antibody, V domains shown)
VH: VQLQQSGAELVRPGTSVKVSCKASRYAFTNYLIEWVKQRPGQGLEWIGMINPGSGGTHYNEKFKVKATLTADKSSSTAYMQLSSLTSDDSAVYFCARGGFGNSFAYWGQGTLVTVSA
VL: DILLTQSPLSLTVTAGEKVTMSCKSSQSLLNGGNLKNYLTWYQQKPGQPPKLLTYWASTRESGVPVRFTGSGSGTDFTLTISSVQAEDLAVYYCQNGYFYPYTFGGGTKLEIK
On to B1, for which the dissociation constant (Kd) in [1] amounted to 0.0536 nM. For the same molecule, the % of cells in gate M1 in [2] is 1.3%. For the same molecule, the EC50 (read off the curve) in experiment [3] worked out at 0.06 µg/mL.

B2: Anti-CLDN 18.2-5H1 (antibody, V domains shown)
VH: VQLQESGAELVRPGTSVKVSCKASGYAFTNYLIEWIKQRPGQGLEWIGMINPGSGGTKYNEKFKGKASLTADKTSSTAYMQLSSLTSDDSAVYFCARGGFGNSFAYWGQGTLVTVSA
VL: DIMMTQSPLSLTVTAGEKVTMTCKSSQSLLNSGNLKNYLTWYQQKPGQPPKLLTYWASTRESGVPTRFTGSGSATDFTLTISSVQAEDLAVYYCQNAYFYPYTFGGGTKLEIK
As to B2, the Kd in experiment [4] was 0.32 nM.

B3: chimeric anti-CLDN 18.2 antibody ch5C9 (antibody, human IgG1, kappa, V domains shown)
VH: EVKLQESGPELKKPGETVKISCKASGYTFTNYGMNWVKQAPGKGLKWMGWINMYTGEPTYADDFKGRFAFSLETSASTAYLQINNLKNEDTATYFCSRLYNGNSLDYWGQGTSLTVSS
VL: DILLTQSPLSLTVTAGEKVTMSCKSSQSLLNSGNQKSYLTWYQQKPGQPPKLLLYWASTRESGVPARFTGSGSGTDFSLTISSVQTEDLAVYYCQNAYSFPFTFGSGTKLEINR
On to B3, for which the equilibrium dissociation constant (Kd) in [5] stood at 0.0988 nM.

B4: Anti-CLDN 18.2-5C9 (antibody, V domains shown)
VH: VKLQESGPELKKPGETVKISCKASGYTFTNYGMNWVKQAPGKGLKWMGWINMYTGEPTYADDFKGRFAFSLETSASTAYLQINNLKNEDTATYFCSRLYNGNSLDYWGQGTSLTVSS
VL: DILLTQSPLSLTVTAGEKVTMSCKSSQSLLNSGNQKSYLTWYQQKPGQPPKLLLYWASTRESGVPARFTGSGSGTDFSLTISSVQTEDLAVYYCQNAYSFPFTFGSGTKLEIN
Turning to B4, the Kd in [1] was 0.0699 nM. The EC50 (read off the curve) in experiment [3] was determined as 0.05 µg/mL. Moreover, the % of cells in gate M1 in [6] was 0.7%.

B5: chimeric anti-CLDN 18.2 antibody ch9A1 (antibody, human IgG1, kappa, V domains shown)
VH: EVQLQQSGAELVRPGTSVKVSCKASRYAFTNYLIEWVKQRPGQGLEWIGMINPGSGGTHYNEKFKVKATLTADKSSSTAYMQLSSLTSDDSAVYFCARGGFGNSFAYWGQGTLVTVSA
VL: DILLTQSPLSLTVTAGEKVTMSCKSSQSLLNGGNLKNYLTWYQQKPGQPPKLLTYWASTRESGVPVRFTGSGSGTDFTLTISSVQAEDLAVYYCQNGYFYPYTFGGGTKLEIKR
Turning to B5, the Kd in experiment [5] came out at 0.101 nM.

B6: chimeric anti-CLDN 18.2 antibody ch15G11 (antibody, V domains shown)
VH: EVQLQESGGGLVQPGGSRKLSCAASGFSFSSFGMHWVRQAPEKGLEWVAFISSGSSPIYYADTVKGRFTVSRDNPKNTLFLQMTSLRSEDTAMYFCARNYYGNAMDYWGQGSSVTVSS
VL: DIMMTQSPLSLTVTAGEKVTMNCKSSQSLLNGGNQKNYLAWYQQKPGQPPKLLIYWASTRESGVPARFTGSGSGTDFTLTINTVQAEDLAVYYCQNDYFYPLTFGTGTKLELKR
B6: the Kd in [5] stood at 0.0939 nM.

B7: Anti-CLDN 18.2-15G11 (antibody, V domains shown)
VH: VQLQESGGGLVQPGGSRKLSCAASGFSFSSFGMHWVRQAPEKGLEWVAFISSGSSPIYYADTVKGRFTVSRDNPKNTLFLQMTSLRSEDTAMYFCARNYYGNAMDYWGQGSSVTVSS
VL: DIMMTQSPLSLTVTAGEKVTMNCKSSQSLLNGGNQKNYLAWYQQKPGQPPKLLIYWASTRESGVPARFTGSGSGTDFTLTINTVQAEDLAVYYCQNDYFYPLTFGTGTKLELK
Consider B7, for which, in experiment [1], the Kd turned out to be 0.0662 nM. The concentration giving a half-maximal response (EC50 (read off the curve)) in [3] came out at 0.06 µg/mL. In experiment [6], this molecule yielded a % of cells in gate M1 of 0.7%.

B8: Anti-CLDN 18.2-5C9o (humanized antibody h5C9o) (antibody, V domains shown)
VH: EVQLVESGGGLVQPGGSLRLSCAVSGYTFSMNWVRQAPGKGLEWVAWINMYTGEPTYADDFKGRFTISRDDSKNTLYLQMNSLRAEDTAVYYCARLYNGNSLDYWGQGTLVTVSS
VL: DIQMTQSPSSLSASVGDRVTITCKSSQSLLNSGNQKSYLTWYQQKPGKAPKLLIYWASTLESGVPSRFSGSGSGTDYTLTISSLQPEDFATYYCQNAYSFPFTFGQGTKVEIK
Turning to B8, the dissociation constant Kd worked out at 0.128 nM in experiment [7], 0.0892 nM in experiment [8], 0.0873 nM in [9] and 0.14 nM in experiment [10].

B9: Anti-CLDN 18.2-5C9oae (humanized antibody h5C9oae) (antibody, human IgG1, V domains shown)
VH: EVQLVESGGGLVQPGGSLRLSCAVSGYTFSMNWVRQAPGKGLEWVAWINMYTGEPTYADDFKGRFTISRDDSKNTLYLQMNSLRAEDTAVYYCARLYRGNSLDYWGQGTLVTVSS
VL: DIQMTQSPSSLSASVGDRVTITCKSSQSLLNSGNQKSYLTWYQQKPGKAPKLLIYWASTLESGVPSRFSGSGSGTDYTLTISSLQPEDFATYYCQNAYFFPFTFGQGTKVEIK
In the case of B9, the Kd in experiment [7] came to 0.14 nM; in experiment [11], 0.183 nM; in experiment [10] it was 0.109 nM.

B10: h5C9oj (antibody, V domains shown)
VH: EVQLVESGGGLVQPGGSLRLSCAVSGYTFSMNWVRQAPGKGLEWVAWINMYTGEPTYADDFKGRFTISRDDSKNTLYLQMNSLRAEDTAVYYCARLYNGNALDYWGQGTLVTVSS
VL: DIQMTQSPSSLSASVGDRVTITCKSSQSLLNSGNQKSYLTWYQQKPGKAPKLLIYWASTLESGVPSRFSGSGSGTDYTLTISSLQPEDFATYYCQNAYFFPFTFGQGTKVEIK
In the case of B10, the values for the Kd in experiment [11] and in experiment [8] were 0.276 nM and 0.0777 nM, respectively.

B11: humanized anti-Claudin 18.2 antibody h5C9oan (antibody, human IgG1, kappa, V domains shown)
VH: EVQLVESGGGLVQPGGSLRLSCAVSGYTFSMNWVRQAPGKGLEWVAWINMYTGEPTYADDFKGRFTISRDDSKNTLYLQMNSLRAEDTAVYYCARSSRGNGFDYWGQGTLVTVSS
VL: DIQMTQSPSSLSASVGDRVTITCKSSQSLLNSGNQKSYLTWYQQKPGKAPKLLIYWASTLESGVPSRFSGSGSGTDYTLTISSLQPEDFATYYCQNAYFFPFTFGQGTKVEIKR
Take B11: the equilibrium dissociation constant (Kd) in experiment [10] worked out at 0.12 nM.

B12: h5C9o Fc mutation (antibody, V domains shown)
VH: EVQLVESGGGLVQPGGSLRLSCAVSGYTFSMNWVRQAPGKGLEWVAWINMYTGEPTYADDFKGRFTISRDDSKNTLYLQMNSLRAEDTAVYYCARLYNGNSLDYWGQGTLVTVSS
VL: DIQMTQSPSSLSASVGDRVTITCKSSQSLLNSGNQKSYLTWYQQKPGKAPKLLIYWASTLESGVPSRFSGSGSGTDYTLTISSLQPEDFATYYCQNAYSFPFTFGQGTKVEIKR
In the case of B12, the Kd in experiment [7] stood at 0.114 nM; in experiment [10], 0.162 nM.

B13: Anti-CLDN 18.2-5C9ob (humanized antibody h5C9ob) (antibody, human IgG1, V domains shown)
VH: EVQLVESGGGLVQPGGSLRLSCAVSGYTFSMNWVRQAPGKGLEWVAWINMYTGEPTYADDFKGRFTISRDDSKNTLYLQMNSLRAEDTAVYYCARLYNGNSLDYWGQGTLVTVSS
VL: DIQMTQSPSSLSASVGDRVTITCKSSQSLLNSGNQKSYLTWYQQKPGKAPKLLIYWASTLESGVPSRFSGSGSGTDYTLTISSLQPEDFATYYCQNAYFFPFTFGQGTKVEIK
As to B13, the Kd in [7] was 0.129 nM; in [11] it was 0.213 nM; in [8], 0.0863 nM; in experiment [12], 0.16 nM; in experiment [10], 0.13 nM.

B14: humanized anti-Claudin 18.2 antibody h5C9oao (antibody, human IgG1, kappa, V domains shown)
VH: EVQLVESGGGLVQPGGSLRLSCAVSGYTFSMNWVRQAPGKGLEWVAWINMYTGEPTYADDFKGRFTISRDDSKNTLYLQMNSLRAEDTAVYYCARLARGNSMDYWGQGTLVTVSS
VL: DIQMTQSPSSLSASVGDRVTITCKSSQSLLNSGNQKSYLTWYQQKPGKAPKLLIYWASTLESGVPSRFSGSGSGTDYTLTISSLQPEDFATYYCQNAYFFPFTFGQGTKVEIKR
On to B14, for which the Kd was 0.134 nM in [7] and 0.102 nM in [10].

B15: Anti-CLDN 18.2-7H1 (antibody, V domains shown)
VL: DIVLTQSPAILSVSPGEKVTMTCRASSSVSYMHWYQQKPGSSPKPWIYGTSNLASGVPARFSGSGSGTSYSLTISRVEAEDAATYYCQQWSSNPLTFGTGTKLELK
V domain: KVQLQESGGGSVQPGGSLKLSCAASGFTFSSYSMSWVRQTPEKRLEWVAYISNLGGATYYPDTVKGRFTVSRDNARNSLYLQMTSLKSDDTAMYYCTRHNYGYDGFADWGQGTLATVSA
Regarding B15, in experiment [4], the dissociation constant (Kd) came to 0.267 nM.

What is called Kd is the free concentration of one partner at which half of the binding sites on the other are occupied at equilibrium, for simple one-to-one binding. The EC50 (read off the curve) is the midpoint of the concentration-response curve.
